# In the DeepSol protein solubility set:
# Experiment: soluble on expression in E. coli; label from the status in PepcDB or PDB records
row,Sequence,soluble on expression in E. coli
1,MGSDKIHHHHHHMEPFSPLNWFRRSSSQASCRTALSSQPSLEAAVNEVAAALAGGSSADLALVFASTHYASDLQRLLPLLQRRLKATHWLGCAGGGVIGTTAKGNASELEKEPALSITMLQLPGAILKPFYLETQSLPDLDGPAQHWQEWVGADPFNARSMLLLVDPSSRSINDLISGLDYAYPTTTKLGGIAGPHNAPHGSLFFDDRVVMGAVGCSFGGDWNLEVVVAQGCKPIGPVFAIEQVQKNILLELSHENQRDSPMACLQRVLDDLSEEEREMVRHSLFLGIERRDLVLAGTGAPQPQGAFLVRNLIGVDPKNGAVAVAEQIRAGQNVQFQLREAEASRQESELLLGAARERNTSPPLFGLLMACLGRGHGLYGVPNGDVHIARKLMAELPIAGVFCNGEIGPAGGVGATHIHGYTACWGLLRHDPSSSEPAKSV,not soluble
2,MGSDKIHHHHHHMEPKYTSFDKSAKTCIRQQVITEDLSWAHYQNAGERLYYQNDTQHTLSMYLDGGYETHRTDIKADYGAPSKFCLMPQGCQSHWQLGQPQQFMHLYFSDEHLKKLAVRVFDKDPRQVRLPELTFVDNPRLEALFRHQVAGLNWQTSDNHLMMEQVTDTVLVTLLQSSGFNLSVGPIKGGLAPKVAKAIKEFIYCHSHRQIYLSELAEIAQLSEYHFCRMFKCQFAMTPQEYLLQVRIEKVKQSLSHSTQSLTDIALNNGFANQSHMGRYFKKLSGMSPGEYQKHHQGR,not soluble
3,MGSDKIHHHHHHMEQKICVIGFSGGQDSTTLAVWAKKRFKKVCLVGFDYAQKHSVELECAQKIASLLQLPYEIIPLDFLENITRSALFKNSNDLIGHSHAQNKDLPNSFVPNRNAIFITLLHSYAQKLGASNIALGVSQADFSGYPDCKEDFIKSIEHALNLGSNTAIKILTPLMFLNKAQEFQMAKDLGVLDLVIKETHTCYQGERKILHAYGYGCDKCPACQLRKKGFEEFQANKK,not soluble
4,MGSDKIHHHHHHMEQLLHYVWKHKIFPLHELQTTTGLPVEVIDTGLPNSDSGPDFFNAKLKIGGTLWVGNVEIHTASSDWFRHGHDRDIAYDSVILHIVTEIDCEIYRSNGEPVPQLRLPCPEQVKEHYDELCRADIHPPCYSILETLPKLTIHSWLTALQTERFDQKNRTITRRLQRCNQHWEDAFFITLARNFGFGLNGDAFETWANLLSFRAIDKHRDDLTQVEAFFFGQAGLLEGESADDYFSWMQKEFRYLQHKFELPPVMNPSLWRFLRLRPGNFPHVRLAQLASLYYRERSLFSRVMEAETLKDLKHIFAGHTSAYWEEHFMFGKSSPRREKSIGAGAKELIIINTVIPFLYAYGLHKADERLCERAASLLEELKAENNYVTRMWSGAGIPVQTAADSQALLQLQKEYCDKKKCLYCRFGYEYLRHK,not soluble
5,MGSDKIHHHHHHMEQRKRRLPPLKSLLFLESVVRNQSVTAAADELSITHSAVSKQLSQLEVWIGQPLFLEKRKGMIPTAEIGRVAAVLGNAFDEIQDALDELHPKRAAKPPVLRVIAPATLAMRWLIPKLGEFHTSAGETDVMVRPTHTPDNWLEMEFDIAIRRGGLIPPQFLPQSLFAETLSLVATARVAESYRMGQGDQLSQIGLIDVSTRHGELMNWLKLAGLPVAMARQATKLPHFYIALDAMFAGRGALVVPTYLIEDQLSRGELVELFPQSRIQGPSYQVFVNPASGAGNLAKGFVDWIKRAIPSVAQYAETR,not soluble
6,MGSDKIHHHHHHMERIEAGMSVMTLKKQTYRVIAVINQGQELLVRAHEPETADIEIIPVTTVVQVTEQNSTGDAAVALDTVTVVGERYVDDIVATLTTLRVGMAVLLQRESGNQYDDNAISVWTLQHAKLGYIARYQNQPYATLMDQGQRLYGIVTVLDQQKQHLELMLWRTTAVPSPIEALQIRQRLAKPRTNLGAVPTHSLQTPLGTIVMMCNGHPIKYQQVPLSPWLTPADELHVTKRYLLTPDWSQVPPDSLITCQVTAKADVVQRWQNEHISAAVLTNASSFYVVGISAQTKTGLNDNLVDDAAQPAVIYRVGQVSAHMQAGFMVSWAPFGDPRVQPALKLALHFSSQPLVPYHPVTPSRTNATFTQQELAALLVSALPNYQGGQRLEPSVTTITVEKLRQTLGDQTYHALANYQRHVQLVAGSTEGVNETLLQALIHAVTYHELTTMHYYQPTVGMVDQVIYPIQLFSTTTKDEDDAQLVGCLALYNYETFEIQQVPLTAIARIAIIADPEHPQTTPETESPDWLRIFLHGWNDDF,not soluble
7,MGSDKIHHHHHHMESFNEYHIDPKQFPFLKNFQDNWQVIRDEYTSFINNASNEELKFTYDVLGPKSQTIKTKGKSKYSAFGILFQGMFIEKYIQAHQIKYPDYGPDEASKKALVLREKYFTNLANVIKDVNLIEDDIIRNVYYGTFHPGLDIKLHVNYNPHTNRGYLGLIVPEGDVAMKICHDQLYWHEGKFLVLDHSYPHCPHNYTSYDRTVLVVDFFKPDKPRDEVIEFEKEQVTQRMQDNPYSLGVFGKSDKAKEEDFIKYGLAHQLEWDKALI,not soluble
8,MGSDKIHHHHHHMESKSAVQLYLELLKKTILFEIWLEYEAYLPASLHISKELEFEPVTVPLPLFIKQYAENHNLKIVKPNVSKSERHDGMDWPRAAHSMIGRERMNQLQEAMETVVRENIEGDFIETGVWRGGSCIFMNGFLQANNITDRNVWVADSFEGLPAPNLEQYPKDYGDYLHTFDYLRVSLEQVQENFKKYDLLNDQVKFLKGWFKDTLPTAPIAAIAIARLDGDMYESTMDGLVNLYDKVSKGGYIIIDDYGLPPCAEAVTDFRNHRNLKAPITKIDVFGVYWRKE,not soluble
9,MGSDKIHHHHHHMETAAELKTRLIAQAKAEGFVSVRLCRPWDVPEVPERLRAFLEAGYHGQMKWMAERINWRENPAALWPEARSVIMLAESYTPDEDPMAVVGLPDRAAISVYARGKDYHDLVKKRLKRLARWLIEEAPDEAQVKVFVDTAPVPEKALGQASGLGWQGKHTNLVSRDWGNWAFLGSIFTTLDLPVDAPEPDRCGSCRACLTACPTDAFPAPYQLDARRCISYLTIEHKGPIEEELRTKLGNRIYGCDDCLAACPWNKFAVEASDMRYAAREGTIAPPLAELSQLDDAAFRARFSGSPIKRIGRDRFVRNVLYAIGNSGDAGLHVFAQALCDDPDPTVAEAARWAAARLP,not soluble
10,MGSDKIHHHHHHMETIETVQRFLEHMAWYATPVPASAISFLAAGEYNENWRIRHEGRDEVLRVNHGSQLRFADQIGYEYAVLRAVHPSGVTPRALRVKSRPRHLSGGALLMEYLPGRPLDYRTDLEAAAHTFAAVHSVVVPRGCPLLRQPDPVADIAADGLRLIHRFPDHPRTDVRDALLRYHERVVRLGEDTRALFEGERQVIANTEVNSGNFLVHDGVARLVDWEKAVVTPRYQDLGHFLAPTTTLWKTDTVLDEADRRRFLAAYRDALTRLAGRETVADCHFDTTDTAEGVTHEAAFHTTAPDAPGGQPHGDMAPDVPDLDALAVRTDVLVRAVLLRGLAWCYMAWQEYATDRRPLAHPDTLRTIERYLAEVSWFLR,not soluble
11,MGSDKIHHHHHHMETLLKISGVDKSFPGVKALNNACLSVYAGRVMALMGENGAGKSTLMKVLTGIYSKDAGTIEYLNRSVNFNGPKASQEAGISIIHQELNLVGNLTIAENIFLGREFKTSWGAINWQKMHQEADKLLARLGVTHSSKQLCAELSIGEQQMVEIAKALSFESKVIIMDEPTDALTDTETEALFNVIRELKAENRGIVYISHRLKEIFQICDDVTVLRDGQFIGERVMAEITEDDLIEMMVGRRLDEQYPHLSQEKGECVLDVKHVSGSGIDDVSFKLHAGEIVGVSGLMGAGRTELGKLLYGALPKTAGKVRLKNQEIENRSPQDGLDNGIVYISEDRKGDGLVLGMSVKENMSLTSLDHFSQKGGIRHQAEKMAVDDFILMFNIKTPNRDQQVGLLSGGNQQKVAIARGLMTRPNVLILDEPTRGVDVGAKKEIYQLINEFKKEGLSILMISSDMPEVLGMSDRVLVMREGKISAEFSREEATQEKLLAAAIGK,not soluble
12,MGSDKIHHHHHHMETRRDERIGQLLQALKRSDKLHLKEAATLLGVSEMTIRRDLNHKSAPVVLLGGYIVLEPRSASHYLLSDQKSRLVEEKRRAAQLAAGLVQAHQTVFIDCGTTTPWIIEAIDNDLPFTAVCYSLNTFLALQDKPHCRAILSGGEFHASNAIFKPLDFHETLNNICPDIAFYSAAGVHTSKGATCFNLEELPVKHWAMTMAQCHVLVVDHSKFGKVRPARMGELSRFDTIISDRRPDEAFVAYAKAQQITLMY,not soluble
13,MGSDKIHHHHHHMEWIDRFIELLFYGEKEEAYKLKFDHFPRRLYKYEVIDEKRLLALKNNKIWFANPDKLNDPFDSCGVFFDKKVLCNYTNKKSIDEYIDGLKRNIKVCCFSEELNSMPMWAHYANNHTGICIEYDFSKLNYMSEFSKYIFPIRYETEKYDITKFLERIFKEEAEERMYLLFFLMQIKHVSWSYEKEWRIILKAYEDKNEGIVCPIKPEGIYLGLNCSEENKEKLKRIVVENIKCPIYEIEKTEGKLFEFKTKNVSEKNYK,not soluble
14,MGSDKIHHHHHHMEYEIVIGLEVHAELATKTKMYCGCTAEFGGQPNTHVCPVCMGLPGALPHINKRAVDYGIKAGLALNCSITHIGRMDRKHIFYPDNSRNYQITQDELPLCTNGYIEIELEDGSKKKIGVERIHIEEDAGKLLHTNAGTLVDFNRCGVPLAEIVSKPDMRSPREAVTYLEELKSILSCVGVSDCKMEEGSLRCDANISVMKKGAKEFGVRTEIKNMNSFKAVEKALNYEYERHIKAIESGEKLTQETRRWDDAKNETAPMRSKEEANDYRYFPEGDLVTLNIDDEWIESIRKTIPELPYQKRERFIKEFGIPKYDASVLTLTMSMADFFEKTAKISGDAKSASNWLMGDISKIMKENYVWIEDLKFTPEQLSELIKLINEGTVSNAIGKKVIIKMFETGKSPKNIIEEEGLIQNSNEDEILNIVKEVLSENEKSIEDYKNGKNRVVGFLIGLVMKKTKGKANPKIVNKLMIDELNKQ,not soluble
15,MGSDKIHHHHHHMFAERLERARKAAGLSMNALANEVGLSANAIKKYEHGTAMPSSSNLLKLAKALDVRTEYFFRPTKVKLEGVEYRKRASTPKKVLDRINGDVLEQAERWQELLELYPDSVKPIPEFTLPNELPEQITSIEQVEDLAIQMRHAWDLGLNPIHDMIDTLEAKGVMIITTDVETDKKFDGLAGKIGSTPVVVISTAQSGDRQRFTLAHELGHLVVHGRLVEALDEEKACNTFAGAFLLPTQTLIEHLGEKRRHIEPRELLMLKHEYGISMLAALFRAGQCGIITPATQKNLFMLFSKNGWRTEEPGKAYPHESTYLHKQLVYRALGEEYIGESKAAELLGMSVSSFHKERKLEVPIQSQLALEAKGAAASN,not soluble
16,MGSDKIHHHHHHMFDMFEKAVVFGLYSITPVHAGSGAELSVIDLPIQRERHTGFPVIWGQSLKGVLRSRFRQLELDEKIEVESQKWKWKEKTKEVLKEKADEFIKKVEERKRDPLLTEIVFGPATDGASEHAGAVSVGDAKILLFPVRSAKGVFAFVTSPIVIQRLKEDFELVSEIENDIELKQILSRFKVELSNNETIAGNALILNGENKVILEDIVLKVKSDSNVIENLVEVLKTLFGDNFFGKPIESIKERIAIVSDDVFKSFTRFSTEIVARVRIDAEKGTVARGGLWYEEFLPSDTLMYSLIAVGSPKKENLPKEVDNTQKIVNVLKVTFNNAFLQIGGDETVGKGFVKVRAGVLTGGHKGN,not soluble
17,MGSDKIHHHHHHMFDVCLFKKMNILYATCFLDVSGVTRLNYDILARLAGKNNIYVCETASDGRLTSKLENHFRDSFGEPFKLFRYPLQDRYRRFLEYLDSNAIDLVFNTHSLWVYEHIAKLKKDRSNLKVVDSLHVLEPYCFRGGYPDISANRYVHPFIDKSIVISEHLLSYIKRSYSVDPGKFIIIRNGVDTTRFKKDSSLKGIFRNELGVPANFPLIGYIGRFSRQKRPDVFLDVAKHLLGKLGEVYFYMAGDGDLLDKSKKLADSLGISNRVSFVAPRDDIHIVLNSTDMLVLTSSYEGAPLTILEALATGVPVVASDVGAISEYVGTPYVVQRQGRGAEVDQFAEAILRGLNDNYPSIFDREIFSLDYVADSYARVFYDTAVRTSTTQEN,not soluble
